For three sequences, EC50 results are on record in the supplement of paper PMC6379048.

Common to all, as to assay: EC50 of free RNA motif oligo competing protein binding to immobilised probe
The target in one data set is CXorf57 (UniProt Q6NSI4). The procedure, abridged: (§1)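 To obtain EC50, data were fitted with a four-parameter log-logistic model; Kd was then EC50 multiplied by a protein-dependent depletion factor. Beforehand, free RNA oligos (0 nM to 30 μM) were pre-incubated with HEK293-FT lysate (2.5 mg protein/well) for 1 h at 4°C. The lysate then spent 30 min at 4°C with the same 5′-amino-C6 oligos coupled to NHS-Sepharose beads, and bound proteins were quantified by label-free LC-MS/MS, normalised to the control.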

The target in another data set is T1, RBM47 (UniProt A0AV96).
T1 sequence: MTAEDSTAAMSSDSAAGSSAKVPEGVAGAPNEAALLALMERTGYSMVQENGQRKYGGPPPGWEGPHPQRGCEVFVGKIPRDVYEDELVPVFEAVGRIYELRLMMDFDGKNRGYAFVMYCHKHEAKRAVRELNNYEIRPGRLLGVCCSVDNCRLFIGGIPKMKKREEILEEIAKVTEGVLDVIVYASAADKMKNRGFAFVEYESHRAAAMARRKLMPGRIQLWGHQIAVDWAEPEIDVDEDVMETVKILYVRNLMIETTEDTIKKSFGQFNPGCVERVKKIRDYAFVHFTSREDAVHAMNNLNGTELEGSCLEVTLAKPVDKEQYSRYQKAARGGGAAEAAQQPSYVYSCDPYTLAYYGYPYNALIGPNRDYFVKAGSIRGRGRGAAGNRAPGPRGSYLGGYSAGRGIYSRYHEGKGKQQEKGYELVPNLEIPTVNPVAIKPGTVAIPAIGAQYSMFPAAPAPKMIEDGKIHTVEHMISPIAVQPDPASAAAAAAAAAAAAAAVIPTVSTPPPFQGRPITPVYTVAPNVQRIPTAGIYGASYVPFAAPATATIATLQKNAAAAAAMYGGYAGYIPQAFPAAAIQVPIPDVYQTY
The procedure, abridged:
as §1

For another data set, the target named is T2, TIAL1 (UniProt Q01085).
T2 sequence: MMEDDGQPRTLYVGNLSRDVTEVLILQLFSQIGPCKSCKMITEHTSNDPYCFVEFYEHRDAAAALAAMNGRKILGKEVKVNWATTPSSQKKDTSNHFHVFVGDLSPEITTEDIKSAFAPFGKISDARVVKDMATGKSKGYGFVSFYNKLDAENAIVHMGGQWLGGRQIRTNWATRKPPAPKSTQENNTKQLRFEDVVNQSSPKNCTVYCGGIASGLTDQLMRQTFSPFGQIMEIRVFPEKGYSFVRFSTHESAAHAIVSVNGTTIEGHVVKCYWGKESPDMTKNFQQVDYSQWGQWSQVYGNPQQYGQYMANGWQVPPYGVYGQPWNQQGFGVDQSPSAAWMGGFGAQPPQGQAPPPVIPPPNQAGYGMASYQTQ
In a few lines: as §1

The next data set deals with TUBB2A (UniProt Q13885). In a few lines:
as §1

In another data set the target is SRSF6 (UniProt Q13247). In a few lines:
as §1

Another data set has as its target T3, SRSF7 (UniProt Q16629).
T3 sequence: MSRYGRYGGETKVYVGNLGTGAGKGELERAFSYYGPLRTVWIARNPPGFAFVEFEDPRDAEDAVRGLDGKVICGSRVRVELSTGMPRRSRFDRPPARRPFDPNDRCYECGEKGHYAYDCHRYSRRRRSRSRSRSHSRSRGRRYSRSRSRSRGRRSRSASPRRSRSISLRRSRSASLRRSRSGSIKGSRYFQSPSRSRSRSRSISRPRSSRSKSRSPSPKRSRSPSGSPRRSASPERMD
In a few lines: as §1

For a further data set, the target named is DAP3 (UniProt P51398). In a few lines: as §1
The target in another data set is T4, MEX3C (UniProt Q5U5Q3).
T4 sequence: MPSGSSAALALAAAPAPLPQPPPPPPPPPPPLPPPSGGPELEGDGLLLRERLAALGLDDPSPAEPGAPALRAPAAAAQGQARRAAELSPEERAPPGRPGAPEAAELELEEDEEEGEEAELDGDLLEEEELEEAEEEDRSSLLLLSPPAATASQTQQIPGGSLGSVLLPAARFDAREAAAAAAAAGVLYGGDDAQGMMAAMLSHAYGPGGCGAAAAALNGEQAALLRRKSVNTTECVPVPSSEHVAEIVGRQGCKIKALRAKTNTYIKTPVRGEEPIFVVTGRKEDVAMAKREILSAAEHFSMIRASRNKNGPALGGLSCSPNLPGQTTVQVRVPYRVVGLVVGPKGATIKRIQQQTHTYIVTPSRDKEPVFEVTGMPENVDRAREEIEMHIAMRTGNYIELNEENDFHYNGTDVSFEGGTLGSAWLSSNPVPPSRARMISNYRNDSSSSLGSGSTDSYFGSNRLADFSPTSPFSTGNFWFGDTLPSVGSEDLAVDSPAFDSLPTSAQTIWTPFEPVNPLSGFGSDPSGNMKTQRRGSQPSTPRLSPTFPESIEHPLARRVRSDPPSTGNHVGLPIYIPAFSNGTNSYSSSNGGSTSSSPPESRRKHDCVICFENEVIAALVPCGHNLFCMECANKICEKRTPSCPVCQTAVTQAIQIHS
The procedure, abridged:
as §1

In a further data set the target is T5, RBM38 (UniProt Q9H0Z9).
T5 sequence: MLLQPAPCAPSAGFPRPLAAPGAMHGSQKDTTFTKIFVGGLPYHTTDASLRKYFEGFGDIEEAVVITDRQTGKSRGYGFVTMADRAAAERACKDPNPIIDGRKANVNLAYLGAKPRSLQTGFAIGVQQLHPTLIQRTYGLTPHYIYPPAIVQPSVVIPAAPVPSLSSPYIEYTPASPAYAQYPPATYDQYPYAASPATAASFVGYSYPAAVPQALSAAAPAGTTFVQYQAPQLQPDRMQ
In a few lines:
as §1

The target in the next data set is SKIV2L (UniProt Q15477). The procedure, abridged: as §1
SKIV2L, sequence (Q15477 whole entry): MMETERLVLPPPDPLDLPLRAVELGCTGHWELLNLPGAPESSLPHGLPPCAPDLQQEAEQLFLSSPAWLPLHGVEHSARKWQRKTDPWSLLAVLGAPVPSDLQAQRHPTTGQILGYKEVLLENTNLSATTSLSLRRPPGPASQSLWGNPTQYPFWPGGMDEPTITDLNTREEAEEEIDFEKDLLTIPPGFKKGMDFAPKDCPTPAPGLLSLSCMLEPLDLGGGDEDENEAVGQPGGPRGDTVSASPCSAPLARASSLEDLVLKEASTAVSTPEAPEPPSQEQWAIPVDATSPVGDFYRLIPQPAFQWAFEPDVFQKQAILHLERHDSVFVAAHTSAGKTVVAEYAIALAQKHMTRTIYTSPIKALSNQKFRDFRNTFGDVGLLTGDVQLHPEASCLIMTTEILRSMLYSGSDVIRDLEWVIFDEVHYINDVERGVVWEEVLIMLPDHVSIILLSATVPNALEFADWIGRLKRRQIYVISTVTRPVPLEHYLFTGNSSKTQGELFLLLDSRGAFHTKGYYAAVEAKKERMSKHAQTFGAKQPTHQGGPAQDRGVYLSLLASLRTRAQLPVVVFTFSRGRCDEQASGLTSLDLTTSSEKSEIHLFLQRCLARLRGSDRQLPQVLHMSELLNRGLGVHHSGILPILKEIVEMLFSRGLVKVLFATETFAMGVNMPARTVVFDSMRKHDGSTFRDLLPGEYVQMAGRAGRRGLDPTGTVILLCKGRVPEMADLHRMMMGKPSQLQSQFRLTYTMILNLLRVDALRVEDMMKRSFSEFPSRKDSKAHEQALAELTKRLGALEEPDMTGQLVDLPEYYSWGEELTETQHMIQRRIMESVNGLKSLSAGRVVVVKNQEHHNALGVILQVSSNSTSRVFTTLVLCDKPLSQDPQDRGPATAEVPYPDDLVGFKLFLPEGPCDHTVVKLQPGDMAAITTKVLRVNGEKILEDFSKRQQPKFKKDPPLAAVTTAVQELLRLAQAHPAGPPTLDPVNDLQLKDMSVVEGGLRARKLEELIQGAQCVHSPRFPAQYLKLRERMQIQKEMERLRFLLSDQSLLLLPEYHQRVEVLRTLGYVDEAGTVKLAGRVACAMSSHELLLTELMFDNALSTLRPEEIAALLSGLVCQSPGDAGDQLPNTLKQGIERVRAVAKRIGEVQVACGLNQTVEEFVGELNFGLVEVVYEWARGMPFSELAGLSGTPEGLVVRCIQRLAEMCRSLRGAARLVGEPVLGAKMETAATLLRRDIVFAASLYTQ

SRSF6, sequence (Q13247 whole entry, looked up): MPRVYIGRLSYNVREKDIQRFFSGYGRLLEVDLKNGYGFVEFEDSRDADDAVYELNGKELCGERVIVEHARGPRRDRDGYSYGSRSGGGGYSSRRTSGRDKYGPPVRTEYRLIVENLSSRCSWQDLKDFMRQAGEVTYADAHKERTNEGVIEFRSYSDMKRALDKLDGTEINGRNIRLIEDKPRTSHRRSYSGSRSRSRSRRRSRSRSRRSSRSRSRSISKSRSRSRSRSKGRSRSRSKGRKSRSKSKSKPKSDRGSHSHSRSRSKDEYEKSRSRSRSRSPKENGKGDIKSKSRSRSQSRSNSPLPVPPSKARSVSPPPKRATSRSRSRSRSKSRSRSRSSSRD
TUBB2A, sequence (Q13885 whole entry): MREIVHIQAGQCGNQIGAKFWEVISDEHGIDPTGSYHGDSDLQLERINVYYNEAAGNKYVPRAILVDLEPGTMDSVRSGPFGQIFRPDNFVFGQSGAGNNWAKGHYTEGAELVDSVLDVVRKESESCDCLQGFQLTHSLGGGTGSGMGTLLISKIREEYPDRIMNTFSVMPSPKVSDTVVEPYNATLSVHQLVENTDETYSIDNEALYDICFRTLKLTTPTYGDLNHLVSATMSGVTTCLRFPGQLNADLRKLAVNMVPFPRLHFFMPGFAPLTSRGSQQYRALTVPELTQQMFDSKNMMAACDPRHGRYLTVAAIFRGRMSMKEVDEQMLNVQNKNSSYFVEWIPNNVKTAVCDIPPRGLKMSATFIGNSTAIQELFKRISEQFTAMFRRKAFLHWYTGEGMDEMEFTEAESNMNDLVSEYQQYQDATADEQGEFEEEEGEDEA
CXorf57, sequence (Q6NSI4 whole entry): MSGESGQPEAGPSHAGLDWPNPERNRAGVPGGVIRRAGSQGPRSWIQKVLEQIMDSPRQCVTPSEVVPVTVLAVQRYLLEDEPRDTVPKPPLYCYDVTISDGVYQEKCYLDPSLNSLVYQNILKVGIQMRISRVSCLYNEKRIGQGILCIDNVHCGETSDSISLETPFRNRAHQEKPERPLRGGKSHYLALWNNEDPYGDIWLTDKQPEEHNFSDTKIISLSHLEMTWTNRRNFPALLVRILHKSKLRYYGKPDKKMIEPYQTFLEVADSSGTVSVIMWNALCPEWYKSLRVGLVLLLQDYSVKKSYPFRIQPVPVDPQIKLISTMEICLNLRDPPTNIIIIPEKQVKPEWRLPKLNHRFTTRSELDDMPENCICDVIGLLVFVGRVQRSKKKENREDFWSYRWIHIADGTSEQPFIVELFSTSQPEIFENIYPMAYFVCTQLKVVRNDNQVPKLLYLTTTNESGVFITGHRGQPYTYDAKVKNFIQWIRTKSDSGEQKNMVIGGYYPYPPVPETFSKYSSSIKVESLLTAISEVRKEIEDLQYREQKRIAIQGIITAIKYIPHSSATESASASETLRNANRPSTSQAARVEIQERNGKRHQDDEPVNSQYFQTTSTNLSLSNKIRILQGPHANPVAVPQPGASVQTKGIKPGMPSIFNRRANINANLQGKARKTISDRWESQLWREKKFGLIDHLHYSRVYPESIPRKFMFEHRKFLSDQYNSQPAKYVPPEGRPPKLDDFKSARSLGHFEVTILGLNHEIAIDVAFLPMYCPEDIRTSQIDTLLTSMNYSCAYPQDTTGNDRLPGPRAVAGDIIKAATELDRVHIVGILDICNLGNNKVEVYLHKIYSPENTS

One may read the EC50 as the concentration giving half of the maximal effect. On to AAUAAA, for which the half-maximal effective concentration (EC50) in the data set with CXorf57 was 3560 nM; with RBM47, 3730 nM; with TIAL1 it was 546 nM; with TUBB2A, 1090 nM.

With CUGUCCU, the EC50 was determined as 1140 nM with SRSF6 and 3020 nM in the data set with SRSF7.

Turning to UAUUUAU, the EC50 was determined as 51.4 nM in the data set with DAP3, 799 nM with MEX3C, 2910 nM with RBM38 and 1950 nM in the data set with SKIV2L.
